# Measurements reported in publication doi:10.1101/2020.05.26.116228, “Cataract-associated New Mutants S175G/H181Q of βB2-Crystallin and P24S/S31G of γD-Crystallin are Involved in Protein aggregation by Structural Changes” (bioRxiv, 2020).
# B1: S175G/H181Q βB2-crystallin (natural protein, human)
# chain: ASDHQTQAGKPQSLNPKIIIFEQENFQGHSHELNGPCPNLKETGVEKAGSVLVQAGPWVGYEQANCKGEQFVFEKGEYPRWDSWTSSRRTDSLSSLRPIKVDSQEHKIILYENPNFTGKKMEIIDDDVPSFHAHGYQEKVSSVRVQSGTWVGYQYPGYRGLQYLLEKGDYKDSGDFGAPQPQVQSVRRIRDMQWHQRGAFHPSN
# notes: human βB2-crystallin with the double mutation found in nuclear cataract lenses, made by site-directed mutagenesis of pGEX-4t-1 CRBB2; also called S175G/H181Q mutant; CRBB2 S175G/H181Q; source: E. coli BL21 (DE3), purified (glutathione-agarose, cleaved from GST with thrombin)
# Molecular target: the molecule itself
# Assay: SEC; Superdex 200 HR 10/30 in PBS (140 mM NaCl, 2.7 mM KCl, 10 mM Na2HPO4, pH 7.4), 0.5 mL/min; protein 2 mg/mL or 450 μg/100 μL (methods); markers albumin 66.4 kDa and α-lactalbumin 14.2 kDa; dimer in rapid equilibrium with monomer
protein,measurement,value
B1,binding result,binds
